This is an account of results in paper PMC4266991.

The target in the assay is SUFU (UniProt Q9UMX1). Description: co-immunoprecipitation, immunoblot. The settings on record: reference: wild-type GLI2, CCL21; sites S149.

Turning to “GLI2 (from UniProt P10070) GLI2 S149A, CCL21”, the “binding against the reference” value is on record as “stronger”.
